For data set [1], the target named is T1, ADAMTS6 C-terminal region (human, UniProt Q9UKP5-1 558-1117).
T1 construct: human ADAMTS6 variant 1, C-terminal region starting at the 1st TSR domain, residues 558-1117; The text calls it monomeric; also called C-terminal ADAMTS6; C-terminal fragment of ADAMTS6; source: 293-EBNA cells (pCEP-pu/AC7), purified (IMAC, 0.5 M NaCl)
T1 sequence (looked up): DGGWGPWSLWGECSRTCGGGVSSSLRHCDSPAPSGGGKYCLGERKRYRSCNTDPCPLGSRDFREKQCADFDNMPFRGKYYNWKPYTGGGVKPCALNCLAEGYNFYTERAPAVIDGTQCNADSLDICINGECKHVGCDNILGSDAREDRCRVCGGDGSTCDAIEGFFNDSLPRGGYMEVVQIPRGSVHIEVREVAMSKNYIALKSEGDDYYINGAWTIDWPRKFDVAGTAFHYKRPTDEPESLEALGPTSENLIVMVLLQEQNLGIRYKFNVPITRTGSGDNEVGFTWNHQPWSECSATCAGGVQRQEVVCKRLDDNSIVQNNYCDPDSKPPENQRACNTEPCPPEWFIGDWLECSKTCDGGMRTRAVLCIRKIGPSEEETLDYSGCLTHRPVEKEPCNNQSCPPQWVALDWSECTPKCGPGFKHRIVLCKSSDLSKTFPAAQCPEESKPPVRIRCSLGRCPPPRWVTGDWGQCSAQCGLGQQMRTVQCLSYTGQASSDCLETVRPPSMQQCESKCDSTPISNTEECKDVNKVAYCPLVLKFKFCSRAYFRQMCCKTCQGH
As to the kind of experiment: SPR; Biacore; syndecan-4 ectodomain immobilised, ADAMTS C-terminal regions injected; 10 mM HEPES pH 7.4, 0.1 M NaCl, 0.5 mM CaCl2, 0.005% P20. The settings on record: both partners purified. A general note: Surface plasmon resonance follows binding to a sensor surface in real time, without labels.

Data set [2] addresses T2, ADAMTS10 C-terminal region (human, UniProt Q9H324 547-1103).
T2 construct: human ADAMTS10 variant 1, C-terminal region starting at the 1st TSR domain, residues 547-1103; also called C-terminal ADAMTS10; source: 293-EBNA cells (pCEP-pu/AC7), purified (IMAC, 0.5 M NaCl)
T2 sequence (looked up): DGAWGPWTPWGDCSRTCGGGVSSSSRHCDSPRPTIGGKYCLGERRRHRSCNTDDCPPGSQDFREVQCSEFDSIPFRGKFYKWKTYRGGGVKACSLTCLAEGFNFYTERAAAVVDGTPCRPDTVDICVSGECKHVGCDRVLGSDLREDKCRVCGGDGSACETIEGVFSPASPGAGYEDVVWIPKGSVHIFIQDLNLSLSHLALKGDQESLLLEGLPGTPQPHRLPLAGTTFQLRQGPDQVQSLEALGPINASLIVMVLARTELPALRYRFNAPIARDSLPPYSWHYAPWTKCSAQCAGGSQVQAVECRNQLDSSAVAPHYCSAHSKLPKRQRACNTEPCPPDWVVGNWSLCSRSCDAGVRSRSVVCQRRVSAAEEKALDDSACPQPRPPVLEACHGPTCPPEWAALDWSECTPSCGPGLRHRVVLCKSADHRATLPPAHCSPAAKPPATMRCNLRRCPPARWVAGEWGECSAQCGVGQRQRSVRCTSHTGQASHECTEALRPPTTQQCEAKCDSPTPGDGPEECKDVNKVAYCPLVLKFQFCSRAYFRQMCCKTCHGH
Described as above. The conditions noted are these: both partners purified.

Data set [3] deals with the molecule itself. Description: SDS-PAGE and western blot (SDS-resistant dimer); purified syndecan-4 ectodomain treated with heparinases I, II, III; anti-syndecan-4 blot; with or without ADAMTS6 overnight at 37 °C. (In western blotting, separated proteins are transferred to a membrane and probed.)
Data set [4] concerns the target T1, ADAMTS6 C-terminal region. Description: SPR; Biacore; ADAMTS protein (full-length or C-terminal region) immobilised by amine coupling on CM5 (~3000 RU); analyte injected at 30 ul/min; 10 mM HEPES pH 7.4, 0.1 M NaCl, 0.5 mM CaCl2, 0.005% P20; 1:1 kinetics or equilibrium analysis. The settings on record: both partners purified.

B1: syndecan-4 ectodomain (domain or fragment, human (cloned from ARPE-19A RNA), UniProt P31431 19-143, looked up)
chain: ESIRETEVIDPQDLLEGRYFSGALPDDEDVVGPGQESDDFELSGSGDLDDLEDSMIGPEVVHPLVPLDNHIPERAGSGSQVPTEPKKLEENEVIPKRISPVEESEDVSNKVSMSSTVQGSNIFER
modifications: the recombinant protein is modified with heparin chains
notes: syndecan-4 ectodomain cloned from RNA of ARPE-19A cells, residues 19-143 (ESI....IFE); Carries heparan sulphate chains in the SPR; also called Syn4 EC; syndecan-4 extracellular domain; source: 293-EBNA cells (pCEP-pu/AC7), purified (IMAC, size-exclusion chromatography)
By Kd is commonly meant a measure of binding affinity in units of concentration. As for B1, the Kd turned out to be 0.0129 ± 0.004 µM in data set [1] and 0.014 ± 0.0011 µM in data set [2]. The binding result in data set [3] is reported as “binds”.

B2: fibrillin-1 Ex6–11 fragment (domain or fragment)
chain: not shown
notes: human fibrillin-1, domains encoded by exons 6-11; source: 293-EBNA cells (pCEP-pu/AC7), purified (IMAC, size-exclusion chromatography)
Take B2: the affinity in data set [4], expressed as Kd, was 0.0024 ± 0.0012 µM.
